Measured values reported in PMC7251119 (2020).

B1: (His)10-MBP-DotL(656-783)–IcmSW–LvgA (complex)
chain 1: GQNEPEPVEDIVEEEVEGALTIFSKLRIDPNAPPILVADKEVFSEPLLPINETRNQMITIERLAGAKDKYAGTVANELIKDFQIATSYPPEERDVIDVQELTGIIRDLSAKISAEREKANKKAAEELT
chain 2: MERDISKCMAKIAASMNAKFYLNDRFVSFDEVFSETGLLPAIAKRADQLCSLCLGYGLGATYDESEGALLGIRVVFDEVTPNVLRLLCMTDVMNELIQGGPSRDYTPLDELMYD
chain 3: MPDLSHEASAKYWFEYLDPMIYRVITFMESVENWTLDGNPELEEAMKQLGQELDDIEKIDLGLLAEEDKFIRIVGNIKSGRGLRLLQAIDTVHPGSASRVLIHAEETSLSSSDPAGFFLKRNIVFERLRLLSRVFCQYRLKLVLRALEGDE
chain 4: MADGDIEIKAGFVDTDLDDRKLTMIDDLNNPLAIVERVYLIWWHWADFHLHVISPHIDTITPAIVIEPELIPGSNDHEFVYSIHDSGSKLSTSKSQDMFSAGMSMCKLFYTIEKMVYILVERLKSGGVSMEAEVQIAFAGHEIAQRKAFESIINLPYNVVVTNFDPGIWGEKYLQNVKRLADKGYGYPPESPRKIYMHPVSSGTTARK
B2: SetA (natural protein)
chain: MYKIYSYLGWRIDMKTENLPQAGQEAQIDKKIHFIWVGHIMPQKNIQVVSEWAEKNPGYETIIWVDKKIAPAKELDLFILDMKSKGITVKDINEEGVCRDSIRHELDQESPNYGMVSDMLRLNILAAEGGIYLDSDILCSAPFPDEIYAPFGFLLSPWSQGANNTLCNDIILCSKGNQIIQQLADAIEQSYIARDSFEFTHEYASMKETKGERIAKTLGVTGPGFLFHQLKKMGILNDKSEMEAIHWELQDQRYLIDGSVKEPDYFYVPQNNTNDASWVPSIKRPGIENMSFQERLENAVQLIAFDIQKTGLFNLDHYANELKVKQNSWCIAAETSPELKPDSYLLIRPRDKTGEWTLYYVDEDKKLNPVTLPVIKGAIKLSEVSDPLRKFHTLLSQVSDPVNPTAHELKQIGRALIELKPRQDEWHCKNKWSGAEEIAQELWQRITSNETLRAQIKQCFTQFESLKPRVAELGLTRASGAGTEVEAHESTVKEQEIISQNTVGEEGTKEKNSVQLASENSSDEKIKTAHDLIDEIIQDVIQLDGKLGLLGGNTRQLEDGRVINIPNGAAMIFDDYKKYKQGELTAESALESMIKIAKLSNQLNRHTFFNQRQPETGQFYKKVAAIDLQTTIAAEYDNNHGLRI

What was measured:
Test in all cases: BLI
PieA = PieA (Legionella pneumophila)
SidH(1830-2200) = SidH(1830-2200) (Legionella pneumophila, UniProt Q5ZRQ1 1830-2200)
[1] = target: B1

For B1, the Kd (PieA) was 230 nM and the Kd (SidH(1830-2200)) was 570 nM.

B2 showed a Kd [1] of 920 nM.
